Experiments:
[1] = target: histone H3 acetylated at lysine 14 in C2C12 chromatin (mouse (endogenous in C2C12)) (UniProt P68433); assay: re-ChIP
[2] = target: DPF3b PHD12 with Ala mutation of Glu315 or Asp335; assay: ITC

Substance	fold reduction of co-occupancy (against wild type DPF3b) [1]	fold reduction in affinity (against wild type PHD12) [2]
EGFP-DPF3b D263A or F264A mutant	2 to 3 fold	–
histone H3 peptide acetylated at lysine 14 (residues 1–18) (from UniProt P68431 2-19)	–	80 to 250 fold

— paper PMC2901902
